According to the supplement of paper PMC5998384:

How the values were obtained:
HeLa Kyoto [1] = assay: solubility in G1/S (NP-40 vs SDS abundance) (log2 ratio); higher = more soluble; details: cell cycle stage: G1/S
HeLa Kyoto [2] = assay: melting temperature (median over replicates), in situ; higher = more thermally stable
HeLa Kyoto [3] = assay: solubility change mitosis vs G1/S (difference of NP-40 vs SDS log2 ratios) (log2 ratio difference); higher = more soluble in mitosis
HeLa Kyoto [4] = assay: thermal stability score vs G1/S (z-score of summed log2 fold changes over temperatures); higher = more thermally stable than in G1/S
[5] = cell cycle stage: early G1 (4.5 h after nocodazole release)
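Throughout, for melting temperature (median over replicates), in situ: HeLa Kyoto cells synchronized by double thymidine or nocodazole block, proteins quantified by TMT10plex mass spectrometry, three independent biological replicates.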
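Throughout, for solubility change mitosis vs G1/S (difference of NP-40 vs SDS log2 ratios): synchronized HeLa Kyoto cells (double thymidine block for G1/S, nocodazole release for mitosis), protein amounts in NP-40 versus SDS lysates quantified by mass spectrometry, three biological replicates.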
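Throughout, for solubility in G1/S (NP-40 vs SDS abundance): HeLa Kyoto cells arrested at G1/S by double thymidine block, proteins quantified by TMT10plex mass spectrometry in mild NP-40 versus SDS extracts, three biological replicates.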
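Throughout, for thermal stability score vs G1/S (z-score of summed log2 fold changes over temperatures): synchronized HeLa Kyoto cells, proteins quantified by TMT10plex mass spectrometry, three biological replicates, mitosis taken 0.5 h after nocodazole release, G1/S directly after double thymidine block.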

Sequence	solubility in G1/S (log2) (HeLa Kyoto [1])	melting temperature (HeLa Kyoto [2]; cell cycle stage: G1/S) [°C]	melting temperature (HeLa Kyoto [2]; cell cycle stage: mitosis) [°C]	solubility change mitosis (log2) (HeLa Kyoto [3])	thermal stability score (HeLa Kyoto [4]; [5])	thermal stability score (HeLa Kyoto [4]; cell cycle stage: mitosis)
MFSWVSKDARRKKEPELFQTVAEGLRQLYAQKLLPLEEHYRFHEFHSPALEDADFDNKPMVLLVGQYSTGKTTFIRHLIEQDFPGMRIGPEPTTDSFIAVMHGPTEGVVPGNALVVDPRRPFRKLNAFGNAFLNRFMCAQLPNPVLDSISIIDTPGILSGEKQRISRGYDFAAVLEWFAERVDRIILLFDAHKLDISDEFSEVIKALKNHEDKIRVVLNKADQIETQQLMRVYGALMWSLGKIINTPEVVRVYIGSFWSHPLLIPDNRKLFEAEEQDLFKDIQSLPRNAALRKLNDLIKRARLAKVHAYIISSLKKEMPNVFGKESKKKELVNNLGEIYQKIEREHQISPGDFPSLRKMQELLQTQDFSKFQALKPKLLDTVDDMLANDIARLMVMVRQEESLMPSQVVKGGAFDGTMNGPFGHGYGEGAGEGIDDVEWVVGKDKPTYDEIFYTLSPVNGKITGANAKKEMVKSKLPNTVLGKIWKLADVDKDGLLDDEEFALANHLIKVKLEGHELPADLPPHLVPPSKRRHE [EHD1]	0.171	50.6	50.5	-0.0648	2.25	2.22
MVPALRYLVGACGRARGLFAGGSPGACGFASGRPRPLCGGSRSASTSSFDIVIVGGGIVGLASARALILRHPSLSIGVLEKEKDLAVHQTGHNSGVIHSGIYYKPESLKAKLCVQGAALLYEYCQQKGISYKQCGKLIVAVEQEEIPRLQALYEKGLQNGVPGLRLIQQEDIKKKEPYCRGLMAIDCPHTGIVDYRQVALSFAQDFQEAGGSVLTNFEVKGIEMAKESPSRSIDGMQYPIVIKNTKGEEIRCQYVVTCAGLYSDRISELSGCTPDPRIVPFRGDYLLLKPEKCYLVKGNIYPVPDSRFPFLGVHFTPRMDGSIWLGPNAVLAFKREGYRPFDFSATDVMDIIINSGLIKLASQNFSYGVTEMYKACFLGATVKYLQKFIPEITISDILRGPAGVRAQALDRDGNLVEDFVFDAGVGDIGNRILHVRNAPSPAATSSIAISGMIADEVQQRFEL [L2HGDH]	0.0471	53.9	53.6	-0.123	0.996	0.751
MEPPSCIQDEPFPHPLEPEPGVSAQPGPGKPSDKRFRLWYVGGSCLDHRTTLPMLPWLMAEIRRRSQKPEAGGCGAPAAREVILVLSAPFLRCVPAPGAGASGGTSPSATQPNPAVFIFEHKAQHISRFIHNSHDLTYFAYLIKAQPDDPESQMACHVFRATDPSQVPDVISSIRQLSKAAMKEDAKPSKDNEDAFYNSQKFEVLYCGKVTVTHKKAPSSLIDDCMEKFSLHEQQRLKIQGEQRGPDPGEDLADLEVVVPGSPGDCLPEEADGTDTHLGLPAGASQPALTSSRVCFPERILEDSGFDEQQEFRSRCSSVTGVQRRVHEGSQKSQPRRRHASAPSHVQPSDSEKNRTMLFQVGRFEINLISPDTKSVVLEKNFKDISSCSQGIKHVDHFGFICRESPEPGLSQYICYVFQCASESLVDEVMLTLKQAFSTAAALQSAKTQIKLCEACPMHSLHKLCERIEGLYPPRAKLVIQRHLSSLTDNEQADIFERVQKMKPVSDQEENELVILHLRQLCEAKQKTHVHIGEGPSTISNSTIPENATSSGRFKLDILKNKAKRSLTSSLENIFSRGANRMRGRLGSVDSFERSNSLASEKDYSPGDSPPGTPPASPPSSAWQTFPEEDSDSPQFRRRAHTFSHPPSSTKRKLNLQDGRAQGVRSPLLRQSSSEQCSNLSSVRRMYKESNSSSSLPSLHTSFSAPSFTAPSFLKSFYQNSGRLSPQYENEIRQDTASESSDGEGRKRTSSTCSNESLSVGGTSVTPRRISWRQRIFLRVASPMNKSPSAMQQQDGLDRNELLPLSPLSPTMEEEPLVVFLSGEDDPEKIEERKKSKELRSLWRKAIHQQILLLRMEKENQKLEASRDELQSRKVKLDYEEVGACQKEVLITWDKKLLNCRAKIRCDMEDIHTLLKEGVPKSRRGEIWQFLALQYRLRHRLPNKQQPPDISYKELLKQLTAQQHAILVDLGRTFPTHPYFSVQLGPGQLSLFNLLKAYSLLDKEVGYCQGISFVAGVLLLHMSEEQAFEMLKFLMYDLGFRKQYRPDMMSLQIQMYQLSRLLHDYHRDLYNHLEENEISPSLYAAPWFLTLFASQFSLGFVARVFDIIFLQGTEVIFKVALSLLSSQETLIMECESFENIVEFLKNTLPDMNTSEMEKIITQVFEMDISKQLHAYEVEYHVLQDELQESSYSCEDSETLEKLERANSQLKRQNMDLLEKLQVAHTKIQALESNLENLLTRETKMKSLIRTLEQEKMAYQKTVEQLRKLLPADALVNCDLLLRDLNCNPNNKAKIGNKP [TBC1D4]	-0.0729	51.1	50.5	-0.0775	-0.833	-0.739
MEPGRRGAAALLALLCVACALRAGRAQYERYSFRSFPRDELMPLESAYRHALDKYSGEHWAESVGYLEISLRLHRLLRDSEAFCHRNCSAAPQPEPAAGLASYPELRLFGGLLRRAHCLKRCKQGLPAFRQSQPSREVLADFQRREPYKFLQFAYFKANNLPKAIAAAHTFLLKHPDDEMMKRNMAYYKSLPGAEDYIKDLETKSYESLFIRAVRAYNGENWRTSITDMELALPDFFKAFYECLAACEGSREIKDFKDFYLSIADHYVEVLECKIQCEENLTPVIGGYPVEKFVATMYHYLQFAYYKLNDLKNAAPCAVSYLLFDQNDKVMQQNLVYYQYHRDTWGLSDEHFQPRPEAVQFFNVTTLQKELYDFAKENIMDDDEGEVVEYVDDLLELEETS [CRTAP]	0.35	53.3	54.8	-0.0925	3.61	4.97
